In patent publication US20190218283A1 (published 2019):

Molecular target: murine pro-myostatin (proGDF8) (mouse, UniProt O08689 25-376)
Assay: cell-based or functional assay

Activity Assay - 293T cells EC50: 0.307 nM
B1: Ab6 (Ab5 IgG4 containing the corrected germline residues) (antibody, V domains shown)
VH: QVQLVESGGGVVQPGRSLRLSCAASGFAFSSYGMHWVRQAPGKGLEWVAVISYDGNNKYYADSVKGRFTISRDNSKNTLYLQMNSLRAEDTAVYYCARDLLVRFLEWSHKYGMDVWGQGTTVTVSS
VL: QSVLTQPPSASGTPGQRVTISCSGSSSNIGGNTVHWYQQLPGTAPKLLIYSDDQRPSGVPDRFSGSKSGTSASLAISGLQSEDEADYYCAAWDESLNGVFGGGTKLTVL
